The record followed here is paper PMC11239505.

This test addresses Gαi (in HEK cells only expressing Gαs and Gαi, GloSensor assay).

“parapinopsin from the Japanese lamprey Lethenteron camtschaticum (LcPPO) (receptor)” displayed a GloSensor assay: decrease of the forskolin-stimulated cAMP bioluminescence signal after a 2-s 365-nm light pulse, HEK cells only expressing Gαs and Gαi of 63%.

The substance “trafficking-enhanced eOPN3 derived from Anopheles stephensi (AsOPN3) (receptor)” came in with a GloSensor assay: decrease of the forskolin-stimulated cAMP bioluminescence signal after a 2-s 365-nm light pulse, HEK cells only expressing Gαs and Gαi of 62%.
